Data taken from paper PMC11746154, “Cryo-EM structures of the Spo11 core complex bound to DNA” (Nature Structural & Molecular Biology, 2023).

T1: Spo11 (subunit of the purified S. cerevisiae Spo11 core complex) (S. cerevisiae, UniProt P23179 1-392)
T1 construct: Spo11, S. cerevisiae
T1 sequence: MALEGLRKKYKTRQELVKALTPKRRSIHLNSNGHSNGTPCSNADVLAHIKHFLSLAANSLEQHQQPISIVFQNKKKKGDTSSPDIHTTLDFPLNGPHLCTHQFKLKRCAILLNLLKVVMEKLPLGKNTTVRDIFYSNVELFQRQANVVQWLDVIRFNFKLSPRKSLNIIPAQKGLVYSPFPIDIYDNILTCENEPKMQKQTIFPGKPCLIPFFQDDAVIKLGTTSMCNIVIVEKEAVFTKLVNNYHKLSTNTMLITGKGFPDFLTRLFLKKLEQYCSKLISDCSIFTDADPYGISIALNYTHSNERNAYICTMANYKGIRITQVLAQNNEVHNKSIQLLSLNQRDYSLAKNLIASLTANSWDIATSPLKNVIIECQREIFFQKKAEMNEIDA

B1: Rec102 (subunit of the purified S. cerevisiae Spo11 core complex) (natural protein)
chain: MARDITFLTVFLESCGAVNNDEAGKLLSAWTSTVRIEGPESTDSNSLYIPLLPPGMLKIKLNFKMNDRLVTEEQELFTKLREIVGSSIRFWEEQLFYQVQDVSTIENHVILSLKCTILTDAQISTFISKPRELHTHAKGYPEIYYLSELSTTVNFFSKEGNYVEISQVIPHFNEYFSSLIVSQLEFEYPMVFSMISRLRLKWQQSSLAPISYALTSNSVLLPIMLNMIAQDKSSTTAYQILCRRRGPPIQNFQIFSLPAVTYNK
notes: Rec102, S. cerevisiae
B2: Ski8 (subunit of the purified S. cerevisiae Spo11 core complex) (natural protein)
chain: MSKVFIATANAGKAHDADIFSVSACNSFTVSCSGDGYLKVWDNKLLDNENPKDKSYSHFVHKSGLHHVDVLQAIERDAFELCLVATTSFSGDLLFYRITREDETKKVIFEKLDLLDSDMKKHSFWALKWGASNDRLLSHRLVATDVKGTTYIWKFHPFADESNSLTLNWSPTLELQGTVESPMTPSQFATSVDISERGLIATGFNNGTVQISELSTLRPLYNFESQHSMINNSNSIRSVKFSPQGSLLAIAHDSNSFGCITLYETEFGERIGSLSVPTHSSQASLGEFAHSSWVMSLSFNDSGETLCSAGWDGKLRFWDVKTKERITTLNMHCDDIEIEEDILAVDEHGDSLAEPGVFDVKFLKKGWRSGMGADLNESLCCVCLDRSIRWFREAGGK
notes: Ski8, S. cerevisiae
B3: Rec104 (subunit of the purified S. cerevisiae Spo11 core complex) (natural protein)
chain: MSIEEEDTNKITCTQDFLHQYFVTERVSIQFGLNNKTVKRINKDEFDKAVNCIMSWTNYPKPGLKRTASTYLLSNSFKKSATVSLPFILGDPVCMPKRVESNNNDTCLLYSDTLYDDPLIQRNDQAGDEIEDEFSFTLLRSEVNEIRPISSSSTAQILQSDYSALMYERQASNGSIFQFSSP
notes: Rec104, S. cerevisiae; 182 residues as printed, of which only 9-58 are visible in the structure

Assays:
[1] = target: T1, Spo11 (subunit of the purified S. …); assay: cryo-EM structure; core complex (subunits co-expressed and co-purified, ~0.2 mg/ml) incubated with hairpin DNA (3.7 Å) or gapped DNA (3.3 Å) at 1:2 protein:DNA in 25 mM HEPES-NaOH pH 7.5, 150 mM NaCl, 5 mM MgCl2, 2 mM DTT, 2% glycerol, 1 h on ice; settings: both partners purified
[2] = target: B1; assay: as above; settings: both partners purified

Binder | stoichiometry N [1] | stoichiometry N [2]
B1 | 1 | –
B2 | 1 | –
B3 | 1 | 1
